Where two headings read alike, the source gives them in different places.
How the values were obtained:
Ku70/80 heterodimer;APLF [1] = target: T1, Ku70/80 heterodimer;APLF (human (HeLa cells);human, UniProt P12956;P13010;Q8IW19 1-609;1-732;1-511, |); conditions: protein: native;recombinant, tags: ;GST removed by PreScission protease, copies: 1;1;1, blunt
[2] = target: T2, Ku70/80 heterodimer;DNA-PKcs (human (HeLa cells);human (HeLa cells), UniProt P12956;P13010;P78527 1-609;1-732;1-4128, |); conditions: protein: native;native, tags: ;, copies: 1;1;1, blunt
[3] = target: T3, Ku70/80 heterodimer;DNA-PKcs;APLF (human (HeLa cells);human (HeLa …, UniProt P12956;P13010;P78527;Q8IW19 1-609;1-732;1-4128;1-511, ||)); conditions: protein: native;native;recombinant; tags: ;;GST removed by PreScission protease; copies: 1;1;1;1; label: 3'-FAM on strand 2; blunt
Ku70/80 heterodimer [4] = target: T4, Ku70/80 heterodimer (human (HeLa cells), UniProt P12956;P13010 1-609;1-732); conditions: protein: native; copies: 1;1; label: 3'-FAM on strand 2; blunt
Ku70/80 heterodimer;APLF [5] = target: T1, Ku70/80 heterodimer;APLF; conditions: protein: native;recombinant; tags: ;GST removed by PreScission protease; copies: 1;1;1; 20-bp duplex with stem-loop at one end and 5-nt overhang at the other
Ku70/80 heterodimer [6] = target: T4, Ku70/80 heterodimer; conditions: protein: native; copies: 1;1; 20-bp duplex with stem-loop at one end and 5-nt overhang at the other
[7] = target: XRCC4-DNA ligase IV (X4L4) (human, UniProt Q13426;P49917 1-336;1-911); conditions: protein: recombinant; chain copies: 2;1; 20-bp duplex with stem-loop at one end and 5-nt overhang at the other
[8] = target: T5, Ku70/80 heterodimer;XRCC4-DNA ligase IV (X4L4);APLF (human (HeLa cells);human;human, UniProt P12956;P13010;Q13426;P49917;Q8IW19 1-609;1-732;1-336;1-911;1-511, ||); conditions: protein: native;recombinant;recombinant; tags: ;;GST removed by PreScission protease; copies: 1;1;2;1;1; 20-bp duplex with stem-loop at one end and 5-nt overhang at the other
APLF [9] = target: T6, APLF (human, UniProt Q8IW19 1-511); conditions: protein: recombinant; tags: GST removed by PreScission protease; 20-bp duplex with stem-loop at one end and 5-nt overhang at the other
[10] = target: Ku70/80 heterodimer;XRCC4-DNA ligase IV (X4L4) (human (HeLa cells);human, UniProt P12956;P13010;Q13426;P49917 1-609;1-732;1-336;1-911, |); conditions: protein: native;recombinant; tags: ;; copies: 1;1;2;1; 20-bp duplex with stem-loop at one end and 5-nt overhang at the other
[11] = target: T3, Ku70/80 heterodimer;DNA-PKcs;APLF; conditions: protein: native;native;recombinant; tags: ;;GST removed by PreScission protease; copies: 1;1;1;1; 20-bp duplex with stem-loop at one end and 5-nt overhang at the other
[12] = target: T2, Ku70/80 heterodimer;DNA-PKcs; conditions: protein: native;native; tags: ;; copies: 1;1;1; 20-bp duplex with stem-loop at one end and 5-nt overhang at the other
[13] = target: T5, Ku70/80 heterodimer;XRCC4-DNA ligase IV …; conditions: protein: native;recombinant;recombinant; tags: ;;GST removed by PreScission protease; copies: 1;1;2;1;1; two stem-loop duplexes (strands 1+2, 3+4) annealing via complementary 10-nt A/T overhangs
APLF [14] = target: T6, APLF; conditions: protein: recombinant; tags: GST removed by PreScission protease; label: 3'-FAM on strand 1; blunt
[15] = target: T3, Ku70/80 heterodimer;DNA-PKcs;APLF; conditions: protein: native;native;recombinant; tags: ;;GST removed by PreScission protease; copies: 1;1;1;1; label: 3'-FAM on strand 1; blunt
Ku70/80 heterodimer [16] = target: T4, Ku70/80 heterodimer; conditions: protein: native; copies: 1;1; label: 3'-FAM on strand 1; blunt

T4 sequence (P12956 whole entry, chain 1 of 2): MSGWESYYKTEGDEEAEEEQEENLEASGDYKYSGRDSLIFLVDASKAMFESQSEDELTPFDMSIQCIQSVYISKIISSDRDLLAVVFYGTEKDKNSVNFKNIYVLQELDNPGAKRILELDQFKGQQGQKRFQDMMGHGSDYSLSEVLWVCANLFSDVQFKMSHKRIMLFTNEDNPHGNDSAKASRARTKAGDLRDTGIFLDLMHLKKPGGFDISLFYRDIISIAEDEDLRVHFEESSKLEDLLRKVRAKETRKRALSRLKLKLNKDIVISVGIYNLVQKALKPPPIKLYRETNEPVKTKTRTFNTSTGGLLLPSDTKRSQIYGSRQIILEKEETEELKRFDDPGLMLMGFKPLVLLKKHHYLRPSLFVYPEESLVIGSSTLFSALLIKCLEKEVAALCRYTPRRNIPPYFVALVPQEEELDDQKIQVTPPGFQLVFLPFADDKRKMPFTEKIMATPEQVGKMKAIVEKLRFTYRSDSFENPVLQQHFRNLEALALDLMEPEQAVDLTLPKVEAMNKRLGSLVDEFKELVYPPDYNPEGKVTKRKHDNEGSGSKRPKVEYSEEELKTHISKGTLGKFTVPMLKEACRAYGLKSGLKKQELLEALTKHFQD
T4 sequence (P13010 whole entry, chain 2 of 2): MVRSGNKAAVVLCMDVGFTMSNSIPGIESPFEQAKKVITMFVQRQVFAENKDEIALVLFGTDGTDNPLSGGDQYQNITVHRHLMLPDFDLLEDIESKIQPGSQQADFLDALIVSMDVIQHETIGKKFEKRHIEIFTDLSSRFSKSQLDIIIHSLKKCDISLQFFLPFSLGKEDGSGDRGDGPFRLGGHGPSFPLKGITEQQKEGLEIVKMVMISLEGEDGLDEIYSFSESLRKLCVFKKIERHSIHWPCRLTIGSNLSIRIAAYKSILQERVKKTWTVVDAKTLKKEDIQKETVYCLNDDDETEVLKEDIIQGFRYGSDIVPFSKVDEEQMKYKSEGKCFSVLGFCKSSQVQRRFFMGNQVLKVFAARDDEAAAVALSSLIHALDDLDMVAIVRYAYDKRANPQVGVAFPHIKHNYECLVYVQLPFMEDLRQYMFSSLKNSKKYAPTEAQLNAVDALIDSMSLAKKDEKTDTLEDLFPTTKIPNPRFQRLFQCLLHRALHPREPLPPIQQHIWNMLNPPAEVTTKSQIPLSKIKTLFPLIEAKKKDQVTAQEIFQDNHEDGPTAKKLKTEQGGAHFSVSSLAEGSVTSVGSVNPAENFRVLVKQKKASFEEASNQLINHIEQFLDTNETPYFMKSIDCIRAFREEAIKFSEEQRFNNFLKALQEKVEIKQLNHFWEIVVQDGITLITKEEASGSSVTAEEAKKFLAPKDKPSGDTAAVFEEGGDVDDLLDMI
T1 sequence (P12956 whole entry, chain 1 of 3): as the sequence (P12956 whole entry, chain 1 of 2) above
T1 sequence (P13010 whole entry, chain 2 of 3): as the sequence (P13010 whole entry, chain 2 of 2) above
T1 sequence (Q8IW19 whole entry, chain 3 of 3): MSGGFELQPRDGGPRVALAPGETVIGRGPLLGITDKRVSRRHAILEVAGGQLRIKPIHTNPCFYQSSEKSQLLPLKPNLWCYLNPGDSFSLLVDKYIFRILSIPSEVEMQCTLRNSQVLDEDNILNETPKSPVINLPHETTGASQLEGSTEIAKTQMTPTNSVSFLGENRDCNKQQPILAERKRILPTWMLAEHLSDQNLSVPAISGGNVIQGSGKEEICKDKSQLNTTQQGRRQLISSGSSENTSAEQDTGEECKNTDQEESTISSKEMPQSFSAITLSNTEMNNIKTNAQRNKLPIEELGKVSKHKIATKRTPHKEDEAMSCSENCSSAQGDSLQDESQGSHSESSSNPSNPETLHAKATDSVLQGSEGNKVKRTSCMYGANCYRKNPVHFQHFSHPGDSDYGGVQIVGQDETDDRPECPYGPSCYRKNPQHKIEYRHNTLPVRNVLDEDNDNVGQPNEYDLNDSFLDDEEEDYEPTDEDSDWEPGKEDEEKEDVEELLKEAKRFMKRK
XRCC4-DNA ligase IV (X4L4), sequence (Q13426 whole entry, chain 1 of 2): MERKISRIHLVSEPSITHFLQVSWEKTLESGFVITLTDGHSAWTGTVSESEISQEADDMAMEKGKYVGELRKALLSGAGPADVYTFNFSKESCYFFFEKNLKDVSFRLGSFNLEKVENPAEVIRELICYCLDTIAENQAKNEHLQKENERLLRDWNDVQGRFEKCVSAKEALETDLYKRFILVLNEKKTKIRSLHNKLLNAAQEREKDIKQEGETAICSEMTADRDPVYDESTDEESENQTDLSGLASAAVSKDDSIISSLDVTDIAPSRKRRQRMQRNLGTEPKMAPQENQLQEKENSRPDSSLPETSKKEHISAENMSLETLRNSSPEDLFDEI
XRCC4-DNA ligase IV (X4L4), sequence (P49917 whole entry, chain 2 of 2): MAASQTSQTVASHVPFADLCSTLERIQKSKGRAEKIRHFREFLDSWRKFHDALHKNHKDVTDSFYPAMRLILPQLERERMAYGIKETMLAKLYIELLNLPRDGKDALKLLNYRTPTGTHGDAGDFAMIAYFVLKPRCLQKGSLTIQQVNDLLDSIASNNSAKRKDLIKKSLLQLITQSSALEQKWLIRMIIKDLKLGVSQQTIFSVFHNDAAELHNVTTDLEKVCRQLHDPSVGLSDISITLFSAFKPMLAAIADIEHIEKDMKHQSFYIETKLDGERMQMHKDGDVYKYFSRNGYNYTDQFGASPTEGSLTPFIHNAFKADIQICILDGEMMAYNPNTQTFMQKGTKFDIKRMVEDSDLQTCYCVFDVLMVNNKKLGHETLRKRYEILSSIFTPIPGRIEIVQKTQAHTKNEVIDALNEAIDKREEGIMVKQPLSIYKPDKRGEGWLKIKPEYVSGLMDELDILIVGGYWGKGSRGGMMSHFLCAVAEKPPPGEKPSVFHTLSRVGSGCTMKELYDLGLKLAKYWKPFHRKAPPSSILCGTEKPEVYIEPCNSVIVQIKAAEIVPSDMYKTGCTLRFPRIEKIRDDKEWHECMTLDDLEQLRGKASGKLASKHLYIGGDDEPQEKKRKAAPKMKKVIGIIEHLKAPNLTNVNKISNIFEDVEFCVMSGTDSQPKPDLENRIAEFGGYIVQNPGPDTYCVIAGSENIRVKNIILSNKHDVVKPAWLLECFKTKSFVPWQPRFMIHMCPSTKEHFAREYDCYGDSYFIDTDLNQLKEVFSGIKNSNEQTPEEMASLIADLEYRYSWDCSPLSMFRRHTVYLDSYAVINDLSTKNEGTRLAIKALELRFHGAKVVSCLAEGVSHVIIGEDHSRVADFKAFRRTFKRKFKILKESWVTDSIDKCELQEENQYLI
Ku70/80 heterodimer;XRCC4-DNA ligase IV (X4L4), sequence (P12956 whole entry, chain 1 of 4): as the sequence (P12956 whole entry, chain 1 of 2) above
Ku70/80 heterodimer;XRCC4-DNA ligase IV (X4L4), sequence (P13010 whole entry, chain 2 of 4): as the sequence (P13010 whole entry, chain 2 of 2) above
Ku70/80 heterodimer;XRCC4-DNA ligase IV (X4L4), sequence (Q13426 whole entry, chain 3 of 4): as the sequence (Q13426 whole entry, chain 1 of 2) above
Ku70/80 heterodimer;XRCC4-DNA ligase IV (X4L4), sequence (P49917 whole entry, chain 4 of 4): as the sequence (P49917 whole entry, chain 2 of 2) above

B1: 25bpDNA 3'-FAM (dsDNA)
DNA 1: AGCATTGACTGGCATCGTAGCATCC
DNA 2: GGATGCTACGATGCCAGTCAATGCT
B1: binds (Ku70/80 heterodimer;APLF [1]; label: 3'-FAM on strand 2); binds ([2]; label: 3'-FAM on strand 2); binds [3]. B1: binds (Ku70/80 heterodimer [4]).

B2: 20bpDNA (stem-loop A) (structured_DNA)
DNA 1: CCCACCCAAAAATCAATAATCGACCCTTTCGACCCGCGC
DNA 2: GCGCGGGTTATTTGATTTTTGGGTGGGGTCGA
B2: binds (Ku70/80 heterodimer;APLF [5]); binds (Ku70/80 heterodimer [6]); no binding [7]. B2: binds [8]; no binding (APLF [9]); binds [10]. B2: binds [11]; binds [12].

B3: 20bpDNA-10nt (stem-loop B plus complementary stem-loop) (structured_DNA)
DNA 1: CCCACCCAAAAATCAATAATCGACCCTTTCGACCCGCGC
DNA 2: GCGCGGGTTATTTGATTTTTGGGTGGGAAAAAAAAAA
DNA 3: TTTTTTTTTTCCCACCCAAAAATCAAATAATCGACCCTTTCGACCCGCGC
DNA 4: GCGCGGGTTATTTGATTTTTGGGTGGG
B3: binds [13].

B4: 40bpDNA 3'-FAM (dsDNA)
DNA 1: GGATACACAACAGACCGCAACACTCAGATTACTTTTCGCC
DNA 2: GGCGAAAAGTAATCTGAGTGTTGCGGTCTGTTGTGTATCC
B4: binds (Ku70/80 heterodimer;APLF [1]; label: 3'-FAM on strand 1); no binding (APLF [14]); binds ([2]; label: 3'-FAM on strand 1). B4: binds [15]; binds (Ku70/80 heterodimer [16]).

Source: paper PMC5207133
